{"source": "paper PMC6704107", "key": {"[1]": {"target": "Adeno-associated virus receptor (AAVR), wild-type, PKD1-5 domains (UniProt Q8IZA0)"}, "[2]": {"target": "recombinant AAV5 particles (AAV5 capsid) (adeno-associated virus 5) (UniProt Q9YIJ1)", "test": "SPR; Biacore T200; AAV1 or AAV5 particles immobilised on a CM5 chip by amide coupling (sodium acetate pH 4.5); wt or mutated AAVR flowed over at 30 ul/min, 25 C, PBS; triplicate experiments, mean with standard error"}, "[3]": {"target": "recombinant AAV1 particles (AAV1 capsid) (adeno-associated virus 1) (UniProt Q9WBP8)", "test": "SPR; Biacore T200; AAV1 or AAV5 particles immobilised on a CM5 chip by amide coupling (sodium acetate pH 4.5); wt or mutated AAVR flowed over at 30 ul/min, 25 C, PBS; triplicate experiments, mean with standard error"}, "[4]": {"target": "Adeno-associated virus 5 (AAV5) particle, wild-type capsid (adeno-associated virus 5 (AAV5)) (UniProt Q9YIJ1)", "test": "SPR; Biacore T200; AAV1 or AAV5 particles immobilised on a CM5 chip by amide coupling; wt or mutated AAVR flowed over; 30 μl/min, 25 °C, PBS"}, "[5]": {"target": "Adeno-associated virus 1 (AAV1) particle, wild-type capsid (adeno-associated virus 1 (AAV1)) (UniProt Q9WBP8)", "test": "SPR; Biacore T200; AAV1 or AAV5 particles immobilised on a CM5 chip by amide coupling; wt or mutated AAVR flowed over; 30 μl/min, 25 °C, PBS"}, "[6]": {"target": "AAV2 capsid (Adeno-associated virus 2) (UniProt P03135)", "details": "cited from earlier work"}, "[7]": {"target": "Adeno-associated virus 1 (AAV1) particle, wild-type capsid (adeno-associated virus 1 (AAV1)) (UniProt Q9WBP8)"}}, "data": [{"substance": "AAV5 particle with capsid mutation Q532A (from UniProt Q9YIJ1 1-724) (complex)", "values": [{"measurement": "transduction of HEK293T cells (endogenous AAVR) by the mutated AAV5-GFP, functional titer against wt AAV5", "setting": "[1]", "value": "50 % of wt AAV5"}]}, {"substance": "AAVR PKD1-5 D435A (from UniProt Q8IZA0-1 1-1049) (domain or fragment)", "values": [{"measurement": "Kd", "setting": "[2]", "value": 234, "unit": "nM"}]}, {"substance": "AAVR PKD1-5 R353A (from UniProt Q8IZA0-1 1-1049) (domain or fragment)", "values": [{"measurement": "Kd", "setting": "[3]", "value": 20.5, "unit": "nM"}]}, {"substance": "AAVR PKD1-5 K399A (from UniProt Q8IZA0-1 1-1049) (domain or fragment)", "values": [{"measurement": "Kd", "setting": "[3]", "value": 17.5, "unit": "nM"}]}, {"substance": "AAVR PKD1-5 L376A (from UniProt Q8IZA0-1 1-1049) (domain or fragment)", "values": [{"measurement": "Kd", "setting": "[3]", "value": 16.7, "unit": "nM"}]}, {"substance": "AAVR PKD1-5 K464A (from UniProt Q8IZA0-1 1-1049) (domain or fragment)", "values": [{"measurement": "Kd", "setting": "[2]", "value": 265, "unit": "nM"}]}, {"substance": "AAVR PKD1-5 K399A (from UniProt Q8IZA0-1 1-1049) (receptor)", "values": [{"measurement": "Kd", "setting": "[4]", "value": 71900, "unit": "nM"}]}, {"substance": "AAVR PKD1-5 S431A (from UniProt Q8IZA0-1 1-1049) (domain or fragment)", "values": [{"measurement": "Kd", "setting": "[2]", "value": 244, "unit": "nM"}]}, {"substance": "AAVR PKD1-5 D437A (from UniProt Q8IZA0-1 1-1049) (domain or fragment)", "values": [{"measurement": "Kd", "setting": "[2]", "value": 252, "unit": "nM"}]}, {"substance": "AAVR PKD1-5 I349A (from UniProt Q8IZA0-1 1-1049) (domain or fragment)", "values": [{"measurement": "Kd", "setting": "[3]", "value": 18.5, "unit": "nM"}]}, {"substance": "AAVR PKD1-5 K464A (from UniProt Q8IZA0-1 1-1049) (receptor)", "values": [{"measurement": "Kd", "setting": "[5]", "value": 1.32, "unit": "nM"}]}, {"substance": "AAVR PKD1-5 T426A (from UniProt Q8IZA0-1 1-1049) (domain or fragment)", "values": [{"measurement": "Kd", "setting": "[2]", "value": 311, "unit": "nM"}]}, {"substance": "AAVR PKD1-5 D436A (from UniProt Q8IZA0-1 1-1049) (domain or fragment)", "values": [{"measurement": "Kd", "setting": "[2]", "value": 295, "unit": "nM"}]}, {"substance": "AAV5 particle with capsid mutation Y542A (from UniProt Q9YIJ1 1-724) (complex)", "values": [{"measurement": "transduction of HEK293T cells (endogenous AAVR) by the mutated AAV5-GFP, functional titer against wt AAV5", "setting": "[1]", "value": "15 % of wt AAV5"}]}, {"substance": "Adeno-associated virus receptor (AAVR), wild-type, PKD1-5 domains (from UniProt Q8IZA0-1 1-1049)", "values": [{"measurement": "Kd", "setting": "[5]", "value": 13.9, "unit": "nM"}, {"measurement": "Kd", "setting": "[4]", "value": 287, "unit": "nM"}]}, {"substance": "AAVR PKD1-5 T434A (from UniProt Q8IZA0-1 1-1049) (domain or fragment)", "values": [{"measurement": "Kd", "setting": "[2]", "value": 289, "unit": "nM"}]}, {"substance": "AAVR PKD1-5 D354A (from UniProt Q8IZA0-1 1-1049) (receptor)", "values": [{"measurement": "fold decrease of binding affinity against wt AAVR", "setting": "[4]", "value": 100, "unit": "fold"}]}, {"substance": "AAVR PKD1-5 S356A (from UniProt Q8IZA0-1 1-1049) (domain or fragment)", "values": [{"measurement": "Kd", "setting": "[3]", "value": 12.2, "unit": "nM"}]}, {"substance": "AAVR PKD1-5 T397A (from UniProt Q8IZA0-1 1-1049) (receptor)", "values": [{"measurement": "fold decrease of binding affinity against wt AAVR", "setting": "[4]", "value": 100, "unit": "fold"}]}, {"substance": "AAVR PKD1-5 D429A (from UniProt Q8IZA0-1 1-1049) (domain or fragment)", "values": [{"measurement": "Kd", "setting": "[2]", "value": 243, "unit": "nM"}]}, {"substance": "AAVR (from UniProt Q8IZA0)", "values": [{"measurement": "Kd", "setting": "[6]", "value": 57, "unit": "nM"}]}, {"substance": "AAVR PKD1-5 D354A (from UniProt Q8IZA0-1 1-1049) (domain or fragment)", "values": [{"measurement": "Kd", "setting": "[3]", "value": 17.4, "unit": "nM"}]}, {"substance": "AAVR PKD1-5 T434A (from UniProt Q8IZA0-1 1-1049) (receptor)", "values": [{"measurement": "AAV1-mCherry transduction of AAVR-silenced HEK293T cells expressing AAVR with this mutation (pcDNA3.1(+)-AAVR) (% of AAV1 infection)", "setting": "[7]", "value": 70}]}, {"substance": "AAVR PKD1-5 T350A (from UniProt Q8IZA0-1 1-1049) (domain or fragment)", "values": [{"measurement": "Kd", "setting": "[3]", "value": 14.2, "unit": "nM"}]}, {"substance": "AAVR PKD1-5 S433A (from UniProt Q8IZA0-1 1-1049) (domain or fragment)", "values": [{"measurement": "Kd", "setting": "[2]", "value": 284, "unit": "nM"}]}, {"substance": "AAVR PKD1-5 S425A (from UniProt Q8IZA0-1 1-1049) (domain or fragment)", "values": [{"measurement": "Kd", "setting": "[2]", "value": 329, "unit": "nM"}]}, {"substance": "AAV5 particle with capsid mutation E708A (from UniProt Q9YIJ1 1-724) (complex)", "values": [{"measurement": "transduction of HEK293T cells (endogenous AAVR) by the mutated AAV5-GFP, functional titer against wt AAV5", "setting": "[1]", "value": "50 % of wt AAV5"}]}, {"substance": "AAVR PKD1-5 S356A (from UniProt Q8IZA0-1 1-1049) (receptor)", "values": [{"measurement": "fold decrease of binding affinity against wt AAVR", "setting": "[4]", "value": 100, "unit": "fold"}]}, {"substance": "AAVR PKD1-5 T397A (from UniProt Q8IZA0-1 1-1049) (domain or fragment)", "values": [{"measurement": "Kd", "setting": "[3]", "value": 17.7, "unit": "nM"}]}, {"substance": "wild-type AAVR PKD1-5 domains with a C-terminal His-tag (from UniProt Q8IZA0-1 1-1049) (domain or fragment)", "values": [{"measurement": "Kd", "setting": "[3]", "value": 16.2, "unit": "nM"}]}, {"substance": "AAVR PKD1-5 Y442A (from UniProt Q8IZA0-1 1-1049) (domain or fragment)", "values": [{"measurement": "Kd", "setting": "[2]", "value": 269, "unit": "nM"}]}, {"substance": "AAVR PKD1-5 E378A (from UniProt Q8IZA0-1 1-1049) (domain or fragment)", "values": [{"measurement": "Kd", "setting": "[3]", "value": 19.9, "unit": "nM"}]}, {"substance": "AAVR PKD1-5 D435A (from UniProt Q8IZA0-1 1-1049) (receptor)", "values": [{"measurement": "AAV1-mCherry transduction of AAVR-silenced HEK293T cells expressing AAVR with this mutation (pcDNA3.1(+)-AAVR) (% of AAV1 infection)", "setting": "[7]", "value": 70}]}, {"substance": "AAVR PKD1-5 V427A (from UniProt Q8IZA0-1 1-1049) (domain or fragment)", "values": [{"measurement": "Kd", "setting": "[2]", "value": 306, "unit": "nM"}]}, {"substance": "AAVR PKD1-5 I349A (from UniProt Q8IZA0-1 1-1049) (receptor)", "values": [{"measurement": "Kd", "setting": "[4]", "value": 7, "unit": "nM"}]}, {"substance": "AAVR PKD1-5 K438A (from UniProt Q8IZA0-1 1-1049) (domain or fragment)", "values": [{"measurement": "Kd", "setting": "[2]", "value": 270, "unit": "nM"}]}]}
